This data set concerns the molecule itself. Briefly: crystal structure.

B1: PoxA (enzyme)
chain: MSETATWQPSASIPNLLKRAAIMAEIRRFFADRGVLEVETPCMSQATVTDIHLFPFETRFVGPGHSQGINLYLMTSPEYHMKRLLAAGCGPVFQLCRSFRNEEMGRHHNPEFTMLEWYRPHYDMYRLMNEVDDLLQQVLDCQPAESLSYQQAFQRHLEIDPLSADKTQLREAAAKLDLSNIADTEEDRDTLLQLLFTMGVEPHIGKEKPTFIYHFPASQASLAQISTEDHRVAERFEVYYKGIELANGFHELTDAREQQQRFEQDNRKRAARGLPQQPIDQNLLDALAAGLPDCSGVALGVDRLVMLALGAESLADVIAFTVDRA
On to B1, for which the binding result is “binds”.

The values above are taken from publication PMC2913146 (Molecular cell, 2010).
